Consider 125 sequences from the supplement of paper PMC9112550, “Optimization of the antimicrobial peptide Bac7 by deep mutational scanning” (BMC Biology, 2022).

In this data set the test system is Escherichia coli TOP10. In words: shrunken log2 fold change of peptide-encoding DNA abundance (4.5 h post-induction vs induction); higher = less antimicrobial activity (less host growth inhibition). The following applies: time post-induction: 4.5 h; library: site-saturation at positions 5, 18, 19, 20.
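Note: peptides expressed intracellularly from a pBAD plasmid library in pooled LB shake-flask culture, induced with 0.3% L-arabinose, DNA abundance read by NGS, three biological replicates, DESeq2 with apeglm shrinkage.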

As to RRIRFRPPRLPRPRPRPEKEPRP, the “shrunken log2 fold change” value is -0.0104. Take RRIRHRPPRLPRPRPRPYFKPRP: the “shrunken log2 fold change” value was -1.03. RRIRRRPPRLPRPRPRPCVWPRP: the “shrunken log2 fold change” value was determined as 0.999. Under RRIRTRPPRLPRPRPRPDFAPRP stands 0.176; under RRIRNRPPRLPRPRPRPWFAPRP, 0.801; under RRIRHRPPRLPRPRPRPAHYPRP, -0.139. Consider RRIRYRPPRLPRPRPRPTNFPRP, for which the “shrunken log2 fold change” value was -0.16. Regarding RRIRHRPPRLPRPRPRPSIAPRP, the “shrunken log2 fold change” value is -0.0614. As to RRIRWRPPRLPRPRPRPHGGPRP, the “shrunken log2 fold change” value is -0.0606.

For RRIRMRPPRLPRPRPRPYAEPRP, the “shrunken log2 fold change” value is 0.0571. For RRIRLRPPRLPRPRPRPALNPRP, the “shrunken log2 fold change” value was -0.0159.

In the case of RRIRLRPPRLPRPRPRPWPVPRP, the “shrunken log2 fold change” value amounted to 0.191.

With RRIRDRPPRLPRPRPRPHCEPRP, the “shrunken log2 fold change” value is -0.0477.

RRIRWRPPRLPRPRPRPCDRPRP: the “shrunken log2 fold change” value was -0.0349. The result for RRIRDRPPRLPRPRPRPSQTPRP reads -0.244. With RRIRWRPPRLPRPRPRPRGAPRP, the “shrunken log2 fold change” value stood at 0.586. RRIRHRPPRLPRPRPRPQYCPRP: the “shrunken log2 fold change” value was -0.00186. As for RRIRGRPPRLPRPRPRPYHLPRP, the “shrunken log2 fold change” value was -1.27. On to RRIRGRPPRLPRPRPRPAKLPRP, for which the “shrunken log2 fold change” value is 0.154. For RRIRDRPPRLPRPRPRPKCTPRP, the “shrunken log2 fold change” value stood at 0.0239. Turning to RRIRTRPPRLPRPRPRPYWTPRP, the “shrunken log2 fold change” value is 0.0389. Under RRIRIRPPRLPRPRPRPFWWPRP stands 0.0783; under RRIRTRPPRLPRPRPRPKKAPRP, -0.0102. The result for RRIRYRPPRLPRPRPRPPEKPRP reads 0.274. Consider RRIRDRPPRLPRPRPRPNLTPRP, for which the “shrunken log2 fold change” value was -0.325. For RRIRCRPPRLPRPRPRPLGAPRP, the “shrunken log2 fold change” value was found to be 0.444. For the sequence RRIRPRPPRLPRPRPRPVWPPRP, the “shrunken log2 fold change” value turned out to be 0.341. In the case of RRIRFRPPRLPRPRPRPFWVPRP, the “shrunken log2 fold change” value was -0.0435.

Take RRIRHRPPRLPRPRPRPRIEPRP: the “shrunken log2 fold change” value is 0.15.

In the case of RRIRWRPPRLPRPRPRPFDQPRP, the “shrunken log2 fold change” value was -0.102. Turning to RRIRIRPPRLPRPRPRPFGFPRP, the “shrunken log2 fold change” value was -0.694. As for RRIRPRPPRLPRPRPRPRTIPRP, the “shrunken log2 fold change” value was determined as 0.206.

Regarding RRIRFRPPRLPRPRPRPVFIPRP, the “shrunken log2 fold change” value is -0.811.

As for RRIRIRPPRLPRPRPRPDWHPRP, the “shrunken log2 fold change” value is -0.882. On to RRIRSRPPRLPRPRPRPGWFPRP, for which the “shrunken log2 fold change” value was found to be 0.44. Take RRIRYRPPRLPRPRPRPIPWPRP: the “shrunken log2 fold change” value was -0.545.

For the sequence RRIRYRPPRLPRPRPRPHACPRP, the “shrunken log2 fold change” value was 0.0039. The result for RRIRSRPPRLPRPRPRPPYAPRP reads 0.0164; that for RRIRERPPRLPRPRPRPDGHPRP, -0.00149; that for RRIRTRPPRLPRPRPRPLWTPRP, -0.0962. The result for RRIRKRPPRLPRPRPRPELSPRP reads 0.0277; that for RRIRFRPPRLPRPRPRPWEWPRP, 0.0781; that for RRIRPRPPRLPRPRPRPDHYPRP, -0.203.

For the sequence RRIRSRPPRLPRPRPRPLGIPRP, the “shrunken log2 fold change” value was -0.036. Under RRIRSRPPRLPRPRPRPMVGPRP stands 0.158; under RRIRCRPPRLPRPRPRPARTPRP, 0.359. Consider RRIRWRPPRLPRPRPRPFKQPRP, for which the “shrunken log2 fold change” value was -0.104. Under RRIRARPPRLPRPRPRPMSNPRP stands -0.433; under RRIRFRPPRLPRPRPRPDESPRP, -0.0167; under RRIRSRPPRLPRPRPRPMVIPRP, -0.0364. Regarding RRIRDRPPRLPRPRPRPTCMPRP, the “shrunken log2 fold change” value was -0.0434. With RRIRLRPPRLPRPRPRPSMSPRP, the “shrunken log2 fold change” value was determined as 0.221. Take RRIRIRPPRLPRPRPRPQYEPRP: the “shrunken log2 fold change” value was -0.184. The result for RRIRFRPPRLPRPRPRPECAPRP reads 0.724; that for RRIRGRPPRLPRPRPRPCFTPRP, 0.334; that for RRIRGRPPRLPRPRPRPLAQPRP, 0.888. For the sequence RRIRIRPPRLPRPRPRPRFKPRP, the “shrunken log2 fold change” value was -0.575. Consider RRIRQRPPRLPRPRPRPSNFPRP, for which the “shrunken log2 fold change” value was -0.621. Turning to RRIRYRPPRLPRPRPRPACQPRP, the “shrunken log2 fold change” value was -0.142.

For RRIRSRPPRLPRPRPRPDTPPRP, the “shrunken log2 fold change” value was -0.0107. Turning to RRIRRRPPRLPRPRPRPQYDPRP, the “shrunken log2 fold change” value was -0.224. Turning to RRIRSRPPRLPRPRPRPIVHPRP, the “shrunken log2 fold change” value is -0.2. Consider RRIRTRPPRLPRPRPRPQEVPRP, for which the “shrunken log2 fold change” value is -0.0102. On to RRIRVRPPRLPRPRPRPLFSPRP, for which the “shrunken log2 fold change” value is -0.261. For RRIRRRPPRLPRPRPRPKTHPRP, the “shrunken log2 fold change” value is 0.126.

As for RRIRMRPPRLPRPRPRPIYPPRP, the “shrunken log2 fold change” value is -0.125.

As to RRIRARPPRLPRPRPRPARSPRP, the “shrunken log2 fold change” value is 0.31. Under RRIRPRPPRLPRPRPRPWGPPRP stands 0.368; under RRIRSRPPRLPRPRPRPRDIPRP, -0.248.

With RRIRCRPPRLPRPRPRPHHMPRP, the “shrunken log2 fold change” value is -1.36.

RRIRNRPPRLPRPRPRPQIWPRP: the “shrunken log2 fold change” value came out at 0.0573.

On to RRIRDRPPRLPRPRPRPYGCPRP, for which the “shrunken log2 fold change” value worked out at 0.141.

Turning to RRIRCRPPRLPRPRPRPHNHPRP, the “shrunken log2 fold change” value was -0.625. For the sequence RRIRNRPPRLPRPRPRPIVLPRP, the “shrunken log2 fold change” value is -0.211. RRIRIRPPRLPRPRPRPQPFPRP: the “shrunken log2 fold change” value was -0.264. For the sequence RRIRMRPPRLPRPRPRPVTEPRP, the “shrunken log2 fold change” value was -0.0547. The result for RRIRGRPPRLPRPRPRPGYPPRP reads 0.115; that for RRIRYRPPRLPRPRPRPISPPRP, 0.0589; that for RRIRQRPPRLPRPRPRPGWMPRP, -0.115. For RRIRHRPPRLPRPRPRPWGVPRP, the “shrunken log2 fold change” value is -0.141.

Take RRIRHRPPRLPRPRPRPSNKPRP: the “shrunken log2 fold change” value is -0.802.

Take RRIRGRPPRLPRPRPRPGKPPRP: the “shrunken log2 fold change” value turned out to be 0.516.

Consider RRIRPRPPRLPRPRPRPGMVPRP, for which the “shrunken log2 fold change” value amounted to 0.268.

Regarding RRIRDRPPRLPRPRPRPDYRPRP, the “shrunken log2 fold change” value was -0.241. For the sequence RRIRYRPPRLPRPRPRPVFRPRP, the “shrunken log2 fold change” value is -0.258. As to RRIRERPPRLPRPRPRPYQVPRP, the “shrunken log2 fold change” value is -0.109. For the sequence RRIRKRPPRLPRPRPRPQMNPRP, the “shrunken log2 fold change” value stood at 0.104.

Take RRIRIRPPRLPRPRPRPCPKPRP: the “shrunken log2 fold change” value was -0.564. Take RRIRHRPPRLPRPRPRPRKQPRP: the “shrunken log2 fold change” value stood at 0.11. For the sequence RRIRRRPPRLPRPRPRPRDFPRP, the “shrunken log2 fold change” value was 0.298.

Turning to RRIRERPPRLPRPRPRPEKVPRP, the “shrunken log2 fold change” value is -0.0174. RRIRFRPPRLPRPRPRPVTCPRP: the “shrunken log2 fold change” value is -0.491. On to RRIRFRPPRLPRPRPRPAHIPRP, for which the “shrunken log2 fold change” value was -0.218.

Take RRIRERPPRLPRPRPRPPMVPRP: the “shrunken log2 fold change” value is -0.45. For the sequence RRIRLRPPRLPRPRPRPILKPRP, the “shrunken log2 fold change” value amounted to 0.0777. As to RRIRERPPRLPRPRPRPVDIPRP, the “shrunken log2 fold change” value was -0.105. On to RRIRCRPPRLPRPRPRPPIFPRP, for which the “shrunken log2 fold change” value was -0.197.

In the case of RRIRYRPPRLPRPRPRPHHAPRP, the “shrunken log2 fold change” value is -0.00186.

In the case of RRIRKRPPRLPRPRPRPKCFPRP, the “shrunken log2 fold change” value came to 0.00084. As for RRIRIRPPRLPRPRPRPPMGPRP, the “shrunken log2 fold change” value was found to be 0.0153.

Regarding RRIRRRPPRLPRPRPRPAKEPRP, the “shrunken log2 fold change” value turned out to be 0.0389. As to RRIRYRPPRLPRPRPRPAMDPRP, the “shrunken log2 fold change” value is -0.256. Turning to RRIRNRPPRLPRPRPRPFKAPRP, the “shrunken log2 fold change” value was 0.0407. For RRIRDRPPRLPRPRPRPHNDPRP, the “shrunken log2 fold change” value is -0.201.

Take RRIRPRPPRLPRPRPRPYDSPRP: the “shrunken log2 fold change” value is -0.977. For RRIRGRPPRLPRPRPRPVFTPRP, the “shrunken log2 fold change” value amounted to 0.523.

On to RRIRPRPPRLPRPRPRPIHLPRP, for which the “shrunken log2 fold change” value is -0.146. Under RRIRFRPPRLPRPRPRPDKWPRP stands 0.0538; under RRIRHRPPRLPRPRPRPSFGPRP, -0.561. Regarding RRIRKRPPRLPRPRPRPISNPRP, the “shrunken log2 fold change” value worked out at 0.153. As for RRIRQRPPRLPRPRPRPYREPRP, the “shrunken log2 fold change” value was -0.0135. The result for RRIRRRPPRLPRPRPRPSEQPRP reads 0.262; that for RRIRNRPPRLPRPRPRPGGPPRP, 0.37. Consider RRIRCRPPRLPRPRPRPWQVPRP, for which the “shrunken log2 fold change” value was 0.00859. With RRIRVRPPRLPRPRPRPQATPRP, the “shrunken log2 fold change” value was found to be 0.271. As to RRIRERPPRLPRPRPRPQLNPRP, the “shrunken log2 fold change” value is -0.423. Turning to RRIRVRPPRLPRPRPRPCRHPRP, the “shrunken log2 fold change” value stood at 0.0429. Consider RRIRRRPPRLPRPRPRPYVRPRP, for which the “shrunken log2 fold change” value is -0.867. In the case of RRIRSRPPRLPRPRPRPCYAPRP, the “shrunken log2 fold change” value is -0.478. The result for RRIRWRPPRLPRPRPRPPQTPRP reads 0.169; that for RRIRTRPPRLPRPRPRPQCEPRP, -0.0143. For RRIRQRPPRLPRPRPRPHVNPRP, the “shrunken log2 fold change” value was determined as 0.0398. Take RRIRKRPPRLPRPRPRPDIRPRP: the “shrunken log2 fold change” value was determined as 0.0731.

As for RRIRDRPPRLPRPRPRPSPEPRP, the “shrunken log2 fold change” value amounted to 0.778. In the case of RRIRTRPPRLPRPRPRPAQAPRP, the “shrunken log2 fold change” value is -0.0199.
